Columns and labels:
[1] = biological target: T1, UP1 (RRM1-RRM2 fragment of hnRNP A1) (UniProt P09651 1-196); assay: ITC
[2] = biological target: T1, UP1 (RRM1-RRM2 fragment of hnRNP A1); assay: NMR
[3] = biological target: T1, UP1 (RRM1-RRM2 fragment of hnRNP A1); assay: NMR; remark: listed apart in the source
[4] = biological target: T1, UP1 (RRM1-RRM2 fragment of hnRNP A1); assay: ITC; remark: listed apart in the source
[5] = biological target: T1, UP1 (RRM1-RRM2 fragment of hnRNP A1); assay: NMR; remark: listed apart in the source

T1 sequence (P09651 1-196): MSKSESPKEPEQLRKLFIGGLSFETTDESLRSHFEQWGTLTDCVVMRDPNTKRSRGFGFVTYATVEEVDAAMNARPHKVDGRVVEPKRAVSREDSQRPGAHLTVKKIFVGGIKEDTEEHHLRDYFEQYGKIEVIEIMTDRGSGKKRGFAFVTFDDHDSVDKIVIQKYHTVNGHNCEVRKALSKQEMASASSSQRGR

For GCACCACAGGAUCAAUAGCAGGUGUGGCACACCAGUCAUACCUUGAUCC (structured_RNA) [EV2], the Kd [1] was 5.1 ± 1.9 µM and the Kd [2] was 11.1 ± 5.1 µM.

Binder GCACCACACG (ssRNA) [RNA0] has a Kd [3] of 978 ± 162 µM.

GCACCACACGGGUUUUAGACAAAAUCCG (structured_RNA) [SMN2 exon 7 ESE1 hairpin] showed a Kd [4] of 47.4 ± 19.7 µM and a Kd [5] of 100 ± 20 µM.

GCACCACACGGGUUUCAGACAAAAUCCG (structured_RNA) [SMN1 exon 7 ESE1 hairpin] showed a Kd [3] of 101 ± 29 µM and a Kd [4] of 51.3 ± 2.5 µM.

— article PMC6837886
